The values that follow come from publication PMC7187366.

Where two headings read alike, the source gives them in different places.

Series [1] concerns the target T1, OsPIL15 (Oryza sativa, UniProt Q0JNI9 1-637).
T1 sequence: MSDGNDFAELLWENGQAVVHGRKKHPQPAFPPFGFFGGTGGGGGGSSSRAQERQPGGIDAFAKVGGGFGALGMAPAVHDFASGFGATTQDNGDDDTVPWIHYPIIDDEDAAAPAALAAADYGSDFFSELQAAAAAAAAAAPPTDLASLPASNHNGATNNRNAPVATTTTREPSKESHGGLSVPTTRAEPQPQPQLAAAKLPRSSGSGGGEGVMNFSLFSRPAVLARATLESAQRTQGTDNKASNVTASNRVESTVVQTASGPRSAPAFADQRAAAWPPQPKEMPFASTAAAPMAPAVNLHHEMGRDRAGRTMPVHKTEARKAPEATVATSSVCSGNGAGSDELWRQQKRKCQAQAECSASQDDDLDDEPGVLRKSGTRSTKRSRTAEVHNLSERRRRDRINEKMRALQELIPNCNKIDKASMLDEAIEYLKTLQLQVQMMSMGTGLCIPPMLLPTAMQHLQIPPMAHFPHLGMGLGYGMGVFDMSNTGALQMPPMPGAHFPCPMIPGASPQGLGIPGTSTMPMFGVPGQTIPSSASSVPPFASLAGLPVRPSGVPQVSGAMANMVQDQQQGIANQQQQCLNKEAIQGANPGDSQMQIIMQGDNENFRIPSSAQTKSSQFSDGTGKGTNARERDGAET
Kind of series: competition.

Series [2] addresses T1, OsPIL15. Kind of series: competition. This is another data set of the same source.

B1: Probe Bm (mutant G-box) (dsDNA)
DNA 1: ATTTTCCTGACTTCACTATGACTTGTT
DNA 2: AACAAGTCATAGTGAAGTCAGGAAAAT
With B1, in the series with OsPIL15 [1], the binding result is “no binding”.

B2: Probe Am (mutant G-boxes) (dsDNA)
DNA 1: TGATCTGACTTTAAACCGGTGACTTTCGCC
DNA 2: GGCGAAAGTCACCGGTTTAAAGTCAGATCA
Take B2: the binding result in the series with OsPIL15 [2] is “no binding”.
